In the supplement of paper PMC7877785:
± gives the uncertainty stated by the source.

Experiment: self-splicing fitness, log relative to wild type (ln ratio); higher = more splicing; Tetrahymena group I intron in knt gene, E. coli kanamycin selection, DiMSum; sequences stand for … in CUCUCU…GGAGGGAAAAGUUAUCAGGCAUGCACCUGGUAGCUAGUCUUUAAACCAAUAGAUUGCAUCGGUUUAAAAGGCAAGACCGUCAAAUUGCGGGAAAGGGGUCAACAGCCGUUCAGUACCAAGUCUCAGGGGAAACUUUGAGAUGGCCUUGCAAAGGGUAUGGUAAUAAGCUGACGGACAUGGUCCUAACCACGCAGCCAAGUCCUAAGUCAACAGAUCUUCUGUUGAUAUGGAUGCAGUUCACAGACUAAAUGUCGGUCGGGGAAGAUGUAUUCUUCUCAUAAGAUAUAGUCGGACCUCUCCUUAAUGGGAGCUAGCGGAUGAAGUGAUGCAACACUGGAGCCGCUGGGAACUAAUUUGUAUGCGAAAGUAUAUUGAUUAGUUUUGGAGUACUCGUGGUCG
Method in brief: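 Pooled colonies went to amplicon sequencing on an Illumina HiSeq 2500 after six replicate transformations. The plates were LB agar with 100 μg/mL carbenicillin, 50 μM IPTG and 0.2% rhamnose, with or without 25 μg/mL kanamycin, incubated overnight at 37°C or 30°C. The E. coli BL21(DE3) library had all eight P1ex-region intron nucleotides randomised, the intron placed in the knt kanamycin-resistance gene on pET-22b(+). DiMSum fitness is the error-weighted combination of replicate fold changes, kanamycin against none, normalised to wild type.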

Sequence	self-splicing fitness (ln) (30 °C)	self-splicing fitness (ln) (37 °C)
UACGAGCAAUAUUACGCUCA	-1.46 ± 0.15	-0.952 ± 0.2
GAUUAGCAAUAUUACGUUGC		-1.94 ± 0.26
UGAAAGCAAUAUUACGGCCA	-0.0769 ± 0.21	0.0533 ± 0.28
ACACAGCAAUAUUACGCGAG	-1.74 ± 0.053	-0.504 ± 0.061
UACCAGCAAUAUUACGGAUG	-0.756 ± 0.055	0.494 ± 0.085
AAGGAGCAAUAUUACGAUCU	-0.603 ± 0.085	-0.731 ± 0.11
CAUAAGCAAUAUUACGAAUC	-3.25 ± 0.25	-3.34 ± 0.37
GUUGAGCAAUAUUACGCUCU	-2.49 ± 0.47	
GUGGAGCAAUAUUACGUUAC	-2.99 ± 0.24	-2.5 ± 0.3
GUUCAGCAAUAUUACGGCUC	0.0792 ± 0.12	-0.018 ± 0.12
AUUAAGCAAUAUUACGACUG	-2.34 ± 0.2	-1.64 ± 0.24
GAUGAGCAAUAUUACGUUCC	-3.45 ± 0.49	-2.23 ± 0.42
UUGUAGCAAUAUUACGUGCG	-1.77 ± 0.15	0.0928 ± 0.14
CUCGAGCAAUAUUACGCCGA	-1.32 ± 0.19	-2.42 ± 0.24
GCACAGCAAUAUUACGUGCC	-5.1 ± 0.29	
ACCCAGCAAUAUUACGUCGA	-1.03 ± 0.078	-0.528 ± 0.077
CAACAGCAAUAUUACGAUGU	-2.57 ± 0.11	-1.62 ± 0.11
AGGCAGCAAUAUUACGGACU	-0.344 ± 0.079	0.146 ± 0.093
AUCUAGCAAUAUUACGGUCC	-1.34 ± 0.21	1.22 ± 0.25
AGCUAGCAAUAUUACGCGUG	-1.6 ± 0.088	-1.53 ± 0.12
CAAGAGCAAUAUUACGCCAA	-3.78 ± 0.4	-2.68 ± 0.3

Sequence	self-splicing fitness (ln) (30 °C)	self-splicing fitness (ln) (37 °C)
AGAUAGCAAUAUUACGCUGC		-1.26 ± 0.34
UAUUAGCAAUAUUACGAUAU	-3.81 ± 0.26	-2.11 ± 0.2
CGAGAGCAAUAUUACGUGAC	-2.77 ± 0.2	-2.01 ± 0.29
AGUGAGCAAUAUUACGAUUG	-3.59 ± 0.42	-2.77 ± 0.38
GAACAGCAAUAUUACGGGCU	-3.02 ± 0.15	-0.92 ± 0.11
GAGUAGCAAUAUUACGGCCU	-0.381 ± 0.12	0.808 ± 0.19
UCUCAGCAAUAUUACGCUCA		-1.48 ± 0.43
CACAAGCAAUAUUACGGUCA	-2.04 ± 0.1	-0.612 ± 0.1
UGAGAGCAAUAUUACGCCGA	-1.96 ± 0.36	
UUAAAGCAAUAUUACGGAUA	-0.925 ± 0.13	-0.197 ± 0.16
AAAAAGCAAUAUUACGGUAC	-3.24 ± 0.11	-1.76 ± 0.094
UUCCAGCAAUAUUACGUAUA	-1.01 ± 0.17	-1.26 ± 0.16
GUUGAGCAAUAUUACGACCG		-1.77 ± 0.47
AGGGAGCAAUAUUACGCGGG	-1.93 ± 0.2	
CGCAAGCAAUAUUACGUACC	-3.02 ± 0.17	-1.8 ± 0.17
CGGCAGCAAUAUUACGUCCU	0.101 ± 0.067	0.44 ± 0.092
GAGGAGCAAUAUUACGCAUA	-1.86 ± 0.35	
GGGUAGCAAUAUUACGCAAC		-2.43 ± 0.44
UCUAAGCAAUAUUACGUACC		-1.04 ± 0.47
ACAUAGCAAUAUUACGCCUG	-0.96 ± 0.16	-0.622 ± 0.15
GCAAAGCAAUAUUACGGCGC	-2.1 ± 0.19	-0.824 ± 0.2

Sequence	self-splicing fitness (ln) (30 °C)	self-splicing fitness (ln) (37 °C)
CAGGAGCAAUAUUACGGGAA	-4.1 ± 0.23	-2.47 ± 0.17
CAUUAGCAAUAUUACGUGGC	-2.79 ± 0.36	-2.09 ± 0.33
GGCGAGCAAUAUUACGGUUG	-2.57 ± 0.14	-0.892 ± 0.16
CUGGAGCAAUAUUACGGCUU	-4.3 ± 0.42	-2.68 ± 0.33
UAUUAGCAAUAUUACGCGAU		-2.15 ± 0.38
UGCUAGCAAUAUUACGUUGC	-3.53 ± 0.34	-1.77 ± 0.23
AGAUAGCAAUAUUACGCCCC	-1.27 ± 0.26	-0.202 ± 0.4
CGUGAGCAAUAUUACGGUGG	-2.03 ± 0.082	-1.35 ± 0.1
UCCAAGCAAUAUUACGAUAU	-3.24 ± 0.19	-2.57 ± 0.16
UUACAGCAAUAUUACGAAGC		-1.41 ± 0.4
CAUUAGCAAUAUUACGUGCC	-2.77 ± 0.29	-2.26 ± 0.45
ACCAAGCAAUAUUACGAACG	-1.61 ± 0.076	-0.581 ± 0.087
GAUUAGCAAUAUUACGUUAA	-1.94 ± 0.32	-1.98 ± 0.3
CACUAGCAAUAUUACGCCUC		-1.72 ± 0.23
CGAGAGCAAUAUUACGAUAC	-3.49 ± 0.42	-1.05 ± 0.26
AUACAGCAAUAUUACGAUAU	-1.45 ± 0.092	-0.42 ± 0.1
UAUCAGCAAUAUUACGGGUA	-1.2 ± 0.092	-0.623 ± 0.1
CUUUAGCAAUAUUACGAGUA	-2.85 ± 0.22	-3.63 ± 0.42
GUUGAGCAAUAUUACGGUGU	-2.22 ± 0.2	-1.1 ± 0.33
GAUCAGCAAUAUUACGCCUG	-0.866 ± 0.17	0.935 ± 0.19
GACUAGCAAUAUUACGUAAU	-1.31 ± 0.077	-0.482 ± 0.092

Sequence	self-splicing fitness (ln) (30 °C)	self-splicing fitness (ln) (37 °C)
UACUAGCAAUAUUACGCGAC	-2.29 ± 0.25	-2.29 ± 0.3
ACAUAGCAAUAUUACGACCU	-0.446 ± 0.1	0.527 ± 0.13
GACCAGCAAUAUUACGAUUU	0.0538 ± 0.046	0.446 ± 0.065
UUAAAGCAAUAUUACGGUUG	-1.13 ± 0.071	-0.199 ± 0.089
UGGAAGCAAUAUUACGCUAC	-4.5 ± 0.34	-2.24 ± 0.21
UUCCAGCAAUAUUACGCCAC		-1.86 ± 0.34
UUGUAGCAAUAUUACGUACU	-0.641 ± 0.12	-0.216 ± 0.14
UUUAAGCAAUAUUACGGGGG	-2.49 ± 0.22	-2.04 ± 0.18
AUUGAGCAAUAUUACGAAGU	-1.71 ± 0.29	-1.72 ± 0.42
UUCUAGCAAUAUUACGUUAG	-3.63 ± 0.29	-2.67 ± 0.37
CAGAAGCAAUAUUACGCGAC		-2.94 ± 0.32
CUCGAGCAAUAUUACGACCC		-1.61 ± 0.46
GAGUAGCAAUAUUACGUGGU	-3.48 ± 0.25	-0.852 ± 0.29
UCUGAGCAAUAUUACGAGAU	-3.79 ± 0.37	-2.48 ± 0.3
CAAUAGCAAUAUUACGUUGC	-4.82 ± 0.42	-3.05 ± 0.26
CAAAAGCAAUAUUACGCGCG	-0.71 ± 0.082	-0.59 ± 0.09
GAGGAGCAAUAUUACGAGAA	-1.98 ± 0.41	-2.44 ± 0.33
CGAUAGCAAUAUUACGUGGC	-2.8 ± 0.21	-3.36 ± 0.46
